Assay results taken from article PMC9936545, “Diurnal Fluctuations of Orexin-A and -B in Cynomolgus Monkey Cerebrospinal Fluid Determined by a Novel Analytical Method Using Antiadsorptive Additive Treatment Followed by Nanoflow Liquid Chromatography–High-Resolution Mass Spectrometry” (ACS Chemical Neuroscience, 2023).
Where no end group is shown, it is not given here.

Columns and labels:
[1] = Recovery of spiked OXA and OXB during syringe and tube transfer in monkey CSF (nonspecific binding); format: physicochemical, cynomolgus monkey; settings: nanoLC-HRMS; for recovery (%), spike recovery: spiked at final 100 pg/mL
Protocol: To overcome those problems, a mixture of 20 mM citric acid and 0.1% (w/v) Tween 80 (final concentrations) was added to the monkey CSF. […] Next, recovery during syringe transfer was assessed using the following procedure (Figure S2). […] Then, the spiked CSF was collected from the tube using a needle and a syringe. To the tube, 6 μL of 1M citric acid and 3 μL of 10% (w/v) Tween 80 were added, and the 300 μL of spiked CSF was returned from the syringe to the tube. The tube, the needle, and the syringe were rinsed by pipetting with CSF containing 20 mM citric acid and 0.1% (w/v) Tween 80 (final concentrations).
The samples were prepared in triplicate. […] The whole sample was removed from the tube using an injection needle (25G, Terumo Corporation, Tokyo, Japan) and a syringe (Terumo Corporation, Tokyo, Japan). Then, 1 M citric acid (6 μL) and 10% (w/v) Tween 80 (3 μL) were added to the empty tube to reach the final concentrations of 20 mM and 0.1%. The sample was returned from the syringe to the tube. The tube and syringe were then rinsed by pipetting five times with the CSF containing 20 mM citric acid and 0.1% (w/v) Tween 80. Finally, the whole sample was transferred to another tube. Recovery during tube transfer was assessed after repeating the procedure three times with monkey CSF containing 20 mM citric acid and 0.1% (w/v) Tween 80. The reference sample was prepared without syringe transfer, pipetting, or tube transfer. Recovery was calculated based on the quantitative values, which were the total values of endogenous and spiked orexins, in the testing samples to that in the reference sample.
CSF collection from cynomolgus monkey (A). Eppendorf Protein LoBind® tubes (1.5mL) were used for sample preparation. The syringe and needle used for CSF collection were washed by pipetting five times with collected CSF including anti- adsorptive additives to prevent non-specific adsorption to the instruments. Recovery test during syringe and tube transfer (B). Eppendorf Protein LoBind® tubes (1.5mL) were used for sample preparation. A tube containing neat CSF spiked with the standards for
The spiked CSF was collected from the tube using a needle and a syringe.
The tube, the needle, and the syringe were rinsed by pipetting five times w ith CSF containing citric acid/Tween 80.

[2] = Stability of OXA and OXB in real matrix (monkey CSF with 20 mM citric acid and 0.1% Tween 80); format: in vitro ADME, cynomolgus monkey
Protocol: Reproducibility was evaluated by intraday and interday assays of spiked quality control (QC) in the surrogate matrix (SQC) and in the real matrix (RQC). […] Carry-over was assessed by injecting blank samples immediately after a calibration standard at the upper limit of quantification.
Working IS solutions at 500 pg/mL were prepared by diluting the IS stock solutions with a mixture of 0.1% (w/v) bovine serum albumin and 20 mM citric acid and 0.1% (w/v) Tween 80 (final concentrations) in Dulbecco’s phosphate-buffered saline (PBS) as the surrogate matrix. The surrogate matrix was used as a blank matrix for the calibration curve, SQC samples for method qualification, and blank samples. […] RQC samples, which were monkey CSF containing 20 mM citric acid and 0.1% (w/v) Tween 80, were also prepared to confirm the parallel between the surrogate and real matrices. […] Stability was evaluated based on the difference from the initial sample. The processed sample stability was evaluated using three replicates of real matrix. […] The stored samples were reinjected with freshly processed calibration samples. The processed sample stability was evaluated to compare the back-calculated concentrations.

[3] = Processed sample stability in autosampler; format: physicochemical, cynomolgus monkey; settings: autosampler at 10 °C
Protocol: Reproducibility was evaluated by intraday and interday assays of spiked quality control (QC) in the surrogate matrix (SQC) and in the real matrix (RQC). […] Carry-over was assessed by injecting blank samples immediately after a calibration standard at the upper limit of quantification. […] The preparation and storage of all CSF samples were conducted under the stable conditions described above.
Working IS solutions at 500 pg/mL were prepared by diluting the IS stock solutions with a mixture of 0.1% (w/v) bovine serum albumin and 20 mM citric acid and 0.1% (w/v) Tween 80 (final concentrations) in Dulbecco’s phosphate-buffered saline (PBS) as the surrogate matrix. The surrogate matrix was used as a blank matrix for the calibration curve, SQC samples for method qualification, and blank samples. […] RQC samples, which were monkey CSF containing 20 mM citric acid and 0.1% (w/v) Tween 80, were also prepared to confirm the parallel between the surrogate and real matrices. […] Stability was evaluated based on the difference from the initial sample. The processed sample stability was evaluated using three replicates of real matrix. […] The stored samples were reinjected with freshly processed calibration samples. The processed sample stability was evaluated to compare the back-calculated concentrations. […]

[4] = OXA and OXB in cisternal CSF collected with and without antiadsorptive additives; format: in vivo, cynomolgus monkey; settings: cisternal CSF at 17:00, collected on different days; additives 20 mM citric acid and 0.1% (w/v) Tween 80; N = 5 for OXA, N = 4 for OXB
Protocol: LoBind tubes were used for preparing the nanoLC-HRMS samples. The IS working solution (60 μL) was mixed with a CSF, calibration curve, SQC, or RQC (50 μL) sample. Samples for the calibration curves were added with freshly prepared calibration standards (5 μL) corresponding to 2.5, 5, 20, 25, 50, 100, and 250 pg/mL, while DMSO (5 μL) was added to other samples. The samples were mixed with 10% (v/v) phosphoric acid (20 μL) and then centrifuged at 18,360g for 5 min at 4 °C. The supernatant (120 μL) was loaded into an HLB μElution plate and washed with 200 μL of methanol/water mixture (5:95, v/v). Orexins and ISs were eluted with 200 μL of acetonitrile/water/formic acid (80:20:0.1, v/v/v). After centrifugation at 4283g for 5 min at 4 °C, the supernatant (180 μL) was evaporated to dryness under a stream of nitrogen gas at room temperature. The precipitates were reconstituted in 40 μL of acetonitrile/water/trifluoroacetic acid (TFA) (4:96:0.01, v/v/v). After centrifugation at 12,000g for 10 min at 4 °C, the supernatant (5 μL) was used for nanoLC-HRMS.
NanoLC-HRMS was performed on an EASY-nLC 1200 system (Thermo Fisher Scientific, Inc., Waltham, MA) and a Q Exactive HF-X Orbitrap mass spectrometer (Thermo Fisher Scientific) equipped with an electrospray ionization interface. […]

Substance: Orexin-A (QPLPDCCRQKTCSCRLYELLHGAGNHAAGILTL; not fully specified; ends and bridges not checked; UniProt O43612 34-66, looked up) [OXA, 33-amino acid peptide with N-terminal pyroglutamylation, amidation of the C-terminal leucine, and two intramolecular disulfide bridges]
- recovery (%), tube transfer (3 times) ([1]; monkey CSF containing 20 mM citric acid/0.1% (w/v) Tween 80, three tube transfers, LoBind tubes, mean ± SD, N = 3): 105.2 ± 12.1%
- recovery (%), syringe and tube transfer ([1]; monkey CSF spiked with OXA and OXB (3 μL of 10 ng each/mL in DMSO + 297 μL CSF), LoBind tube, 25G needle and syringe, 20 mM citric acid/0.1% (w/v) Tween 80 added after syringe collection, rinsed by pipetting five times, vs reference sample, mean ± SD, N = 3): 100.6 ± 9.4%
- recovery (%), spike recovery ([1]; monkey CSF with 20 mM citric acid/0.1% (w/v) Tween 80, mean ± SD, N = 3): 107.1 ± 3.8%
- recovery ([1]; monkey CSF with addition of 0.01% (v/w) Tween 80 alone): 106.1%
- recovery (%), spike recovery ([1]; neat monkey CSF, no additives, mean ± SD, N = 3): 41.6 ± 3.9%
- percent difference in QC samples for stability evaluation from the initial sample ([2]; freeze–thaw (3 cycles, −80 °C), room temperature 2 h, −80 °C 60 days, real matrix QC in triplicate, within ±): ≤ 15%
- stability in real matrix, three freeze–thaw cycles ([2]; monkey CSF with 20 mM citric acid and 0.1% (w/v) Tween 80, unspiked and spiked (25 and 125 pg/mL) QC samples in triplicate, three freeze–thaw cycles at −80 °C, nanoLC-HRMS): stable
- stability in real matrix at room temperature ([2]; monkey CSF with 20 mM citric acid and 0.1% (w/v) Tween 80, unspiked and spiked QC samples in triplicate, room temperature for 2 h, nanoLC-HRMS): stable
- stability in real matrix at −80 °C ([2]; monkey CSF with 20 mM citric acid and 0.1% (w/v) Tween 80, unspiked and spiked QC samples in triplicate, −80 °C for 60 days, nanoLC-HRMS): stable
- time stable in autosampler (processed sample stability) ([3]; processed real-matrix samples, reconstituted in acetonitrile/water/TFA (4:96:0.01), three replicates): at least 48 h
- percent remaining after 48 h, difference from the initial analysis ([3]; processed samples, 48 h, three replicates of real matrix, within ±): ≤ 15%
- concentration ratios between samples without and with the antiadsorptive additives, mean [4]: 30.7%
